Source: patent publication US20120071629A1, “APPOPTOSIN AND USES THEREOF FOR TREATING NEURODEGENERATIVE DISEASE AND CANCER” (Tsinghua University, priority 2006, published 2012)

Key:
N2a cells = test: BH3I- and staurosporine-induced caspase 3 cleavage/activation; format: cell-based
Description: N2a cells were first subjected to downregulation of 168 by RNAi, and were then treated with apoptotic reagents BH3I and staurosporine. […] In addition, 168 is subjected to cleavage under apoptotic treatments (indicated by *).

APP-AICD (AID) = target: T1, APP-AICD (AID) (Homo sapiens, UniProt P05067); test: Yeast two-hybrid assay with quantitative β-galactosidase activity; format: binding; settings: yeast AH109 co-transfected with pGBKT7-AID; ONPG substrate
T1 construct: The intracellular end of human APP was amplified, i.e., AID, was amplified; expressed in transfected cells; host or cells: yeast AH109
Excerpt: The interaction of AICD-Ga14 activation domain (AD) with 168(264-304) fragment-DNA binding domain (DBD) activates GAL4-driven beta-galactosidase expression in yeast.
The intracellular end of human APP was amplified, i.e., AID, was amplified. In order to completely expose AID, 5 amino acids of Aβ and […] (SEQ ID NO:9) were extended in front of AID. The PCR product was recovered and purified. It was then inserted into protein expression vector pGBKT7 for identification by means of sequencing. The successfully constructed vector is named pGBKT7-AID. Positively identified pGBKT7-AID was transferred into yeast AH109, and then cultured on a SD/-Trp plate. […]
Screening and Identification of Positive Clones: Yeast expression vector pGBKT7 contained the autocrine gene of Trp (tryptophan) and the DNA binding domain of GAL4. pACT2 contained the autocrine gene of Leu (leucine) and the DNA activation structure domain. […] The results were compared and analyzed against information available in GenBank.
Quantitative Analysis of β-galactosidase Activity: Yeast co-transfected positive clones grown on the plate were picked and cultured further in a SD/Leu/-Trp liquid culture medium at 30° C. overnight. […] The solution was centrifuged and the supernatant was taken to measure its absorbance at 420 nm to calculate its β-galactosidase activity. […]

APP = target: T2, APP (Homo sapiens, UniProt P05067); test: Anti-APP (369) IP and anti-myc Western blot in co-transfected 293T cells; format: binding; settings: myc-168 or deletion mutants co-transfected with APP into 293T cells
T2 construct: expressed in transfected cells; host or cells: 293T cells
Excerpt: Protein expressions are shown in the middle and lower panels.
Deletion mutants of myc-168 and APP were co-transfected into 293T cells and cell lysates subjected to anti-APP (369) IP and anti-myc WB to detect 168-APP interaction (upper panel).

APP-AICD(C99) = target: T3, APP-AICD(C99) (Homo sapiens, UniProt P05067); test: Anti-myc IP and anti-HA Western blot in co-transfected 293T cells; format: binding
T3 construct: Deletion mutants of HA-168 and myc-tagged APP-AICD(C99) were co-transfected into 293T cells; myc; expressed in transfected cells; host or cells: 293T cells
Excerpt: IP-WB the minimal domain of 168 to interact with AICD is 118-264AA. Deletion mutants of HA-168 and myc-tagged APP-AICD(C99) were co-transfected into 293T cells and cell lysates subjected to anti-myc IP and anti-HA WB to detect 168-APP interaction (upper panel). Protein expressions are shown in the middle and lower panels.

239T cells = test: Apoptosis by annexin V/PI double staining after 168 expression; format: cell-based
293T cells = test: Cytochrome c release from mitochondria, immunoblotting of mitochondria and cytosol; format: cell-based; settings: 293T cells transfected with 168
Excerpt: Mitochrondia and cytosol were isolated from 293T cells transfected with 168 and subjected to immunoblotting with different antibodies: Tubulin serves as a cytosol marker and CoxIV as a mitochondrial marker.

[1] = tested on: mitochondrial membrane potential; test: Mitochondrial membrane potential after 168 expression; format: cell-based
Excerpt: MCCP: an ionophore to disrupt proton gradient used as a positive control to decrease mitochondrial membrane potential.

[2] = tested on: N2a cells stably expressing human APP695; test: Aβ generation and APP metabolism, IP and Western blot; format: cell-based
Excerpt: (§1) N2a cells stably expressing human APP695 were transfected with NotchΔE-myc(Notch lacking its ectodomain and carrying a myc tag at its C-terminus) for 1 day. Cells were split equally and transfected with 168 with different dosage for 2 days. Conditional media were collected for sAPPα and secretary Aβ assays. Cells were lysed in 6% SDS and assayed for Notch/NICD conversion and APP metabolism. 168/FLJ20551 and Notch/NICD were detected using myc antibody 9E10. APP AICD was detected using APP C-terminus antibody 369. APP βCTFs, intracellular Aβ, and secretary Aβ in conditional media were immunoprecipitated using antibody 4G8 and detected using antibody 6E10. Soluble APPα were detected using 6E10. α-tubulin was used as control.

Notch = test: Notch/NICD conversion, Western blot; format: cell-based; settings: overexpression of 168; NotchΔE-myc transfected N2a cells; ratios of NICD to Notch
Excerpt: as §1

[3] = tested on: N2a cells stably expressing human APP Swedish mutations; test: Aβ40 generation, IP and urea gel; format: cell-based; settings: overexpression of 168, 2 days, secreted Aβ in conditional media
Description: N2a cells stably expressing human APP Swedish mutations were transfected with 168 for 2 days. Secretary Aβ in conditional media were immunoprecipitated using antibody 4G8 and detected using antibody 6E10. The samples were analyzed using Urea gel, which can differentiate variant Aβ species.

mouse fibroblast cells = test: 168-mediated apoptosis in APP WT and APP/APLP2 DKO cells, annexin V/PI double staining; format: cell-based; settings: mouse fibroblast cells transfected with 168
Excerpt: APP wild type (WT) and APP/APLP2 double knockout (DKO) mouse fibroblast cells were transfected with control (vector) or 168.

With `CN[C@@H]1C[C@H]2O[C@@](C)([C@@H]1OC)n1c3ccccc3c3c4c(c5c6ccccc6n2c5c31)C(=O)NC4` [staurosporine] the “caspase 3 cleavage for activation upon apoptotic treatment” value (N2a cells) was “cleaved”.

B1: 168: Appoptosin polypeptide; human amino acid sequence SEQ ID NO:2; expressed in cells by transfection (protein)
chain: MIQNSRPSLLQPQDVGDTVETLMLHPVIKAFLCGSISGTCSTLLFQPLDLLKTRLQTLQPSDHGSRRVGMLAVLLKVVRTESLLGLWKGMSPSIVRCVPGVGIYFGTLYSLKQYFLRGHPPTALESVMLGVGSRSVAGVCMSPITVIKTRYESGKYGYESIYAALRSIYHSEGHRGLFSGLTATLLRDAPFSGIYLMFYNQTKNIVPHDQVDATLIPITNFSCGIFAGILASLVTQPAGVIKTHMQLYPLKFQWIGQAVTLIFKDYGLRGFFQGGIPRALRRTLMAAMAWTVYEEMMAKMGLKS
modifications: Description of Artficial Sequence note = synthetic construct
notes: Appoptosin polypeptide; expressed in cells by transfection
In the case of B1, the “intensity of interaction with AID (bait protein) by β-galactosidase activity” value (APP-AICD (AID)) is reported as “fairly intense”, the “interaction with APP in IP-WB” value (APP) is reported as “interacts” and the “interaction with APP-AICD(C99) in cells” value (APP-AICD(C99); HA-168 deletion mutants and myc-tagged C99 co-transfected into 293T cells) is reported as “interacts”. The “minimal domain of 168 to interact with AICD” value (APP-AICD(C99); IP-WB) was 118-264AA, the apoptosis (239T cells) was “induces apoptosis” and the “cytochrome c release from mitochondria” value (293T cells) was “induces cytochrome c release”. For the same molecule, the mitochondrial membrane potential [1] was “decrease”, the sAPPα ([2]; overexpression of 168, conditional media) was “slightly increases” and the Aβ generation ([2]; overexpression of 168, different dosage, 2 days) was “inhibits Aβ generation in a dose-dependent manner”. For the same molecule, the “conversion of Notch to NICD” value (Notch) was “does not affect”, the Aβ40 generation [3] was “reduces Aβ40 generation in a dose-dependent manner” and the “168-induced cell apoptosis in APP/APLP2 DKO cells compared with APP WT cells” value (mouse fibroblast cells) was “dramatically less”.

B2: 118-304AA: deletion mutant of myc-168, amino acids 118-304 (protein)
chain: GHPPTALESVMLGVGSRSVAGVCMSPITVIKTRYESGKYGYESIYAALRSIYHSEGHRGLFSGLTATLLRDAPFSGIYLMFYNQTKNIVPHDQVDATLIPITNFSCGIFAGILASLVTQPAGVIKTHMQLYPLKFQWIGQAVTLIFKDYGLRGFFQGGIPRALRRTLMAAMAWTVYEEMMAKMGLKS
modifications: left off: small tags and cut ends
B2 was tested, and the “interaction with APP in IP-WB” value (APP) was “still detected”.
